Six molecules from patent US20170015742A1 (published 2017) can be followed below.

Experiment [1] deals with T1, human VEGF 165 (PR-1350437) (human, UniProt P15692 207-395).
T1 construct: Purified recombinant protein; also called hVEGF165
As to the kind of experiment: SPR (Biacore), mAb captured by anti-human Fc, antigen injected. The protocol:
(§1) Unreacted moieties on the biosensor surface were blocked with ethanolamine. For kinetic analysis, rate equations derived from the 1:1 Langmuir binding model were fitted simultaneously to multiple antigen injections (using global fit analysis) with the use of Scrubber 2 (BioLogic Software), Biacore Biaevaluation 4.0.1 software or Biacore T100 Evaluation software. Purified antibodies or DVD-Ig molecules were diluted in running buffer for capture across goat anti-human Fc reaction surfaces. Antibodies or DVD-Ig molecules to be captured as a ligand (1 μg/ml) were injected over reaction matrices at a flow rate of 10 μl/minute. During the assay, all measurements were referenced against the capture surface alone (i.e., with no captured antibody or DVD-Ig molecule). […] The equilibrium dissociation constant KD (M) of the reaction between antibodies and the target antigen was then calculated from the kinetic rate constants by the following formula: KD=Koff/Kₒₙ. Binding was recorded as a function of time and kinetic rate constants were calculated. In this assay, on-rates as fast as 10⁶M⁻¹s⁻¹ and off-rates as slow as 10⁻⁶ s⁻¹ could be measured.

Experiment [2] concerns the target T2, human VEGF 111 (PR-1520687) (human, UniProt P15692-10 27-137).
T2 construct: also called hVEGF111
T2 sequence (looked up): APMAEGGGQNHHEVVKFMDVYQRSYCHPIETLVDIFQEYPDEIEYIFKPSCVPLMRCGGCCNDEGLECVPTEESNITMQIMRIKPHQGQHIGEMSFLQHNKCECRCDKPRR
Described as above. The protocol:
as §1

Experiment [3] concerns the target T3, human VEGF 121 (PR-1515941) (human, UniProt P15692 207-395).
T3 construct: Recombinant isoform; also called hVEGF121
T3 sequence: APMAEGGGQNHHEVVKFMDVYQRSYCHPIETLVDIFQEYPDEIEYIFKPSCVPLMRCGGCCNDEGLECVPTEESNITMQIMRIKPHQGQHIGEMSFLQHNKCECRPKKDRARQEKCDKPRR
The experiment is described as above. The procedure:
as §1

The target in a further experiment is T4, human VEGF111 (human, UniProt P15692-10 27-137).
T4 sequence (looked up): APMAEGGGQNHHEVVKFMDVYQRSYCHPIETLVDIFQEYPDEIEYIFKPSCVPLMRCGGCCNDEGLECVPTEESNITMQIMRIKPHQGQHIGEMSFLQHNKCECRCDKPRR
As to the kind of experiment: cell-based or functional assay.

For experiment [4], the target named is T5, Human VEGF-A 165 (human, UniProt P15692 207-395). As to the kind of experiment: cell-based or functional assay.
In experiment [5] the target is T5, Human VEGF-A 165. As to the kind of experiment: receptor competition ELISA: antibody titrated against biotinylated hVEGF165, binding to coated hVEGF-R2-Fc read. The procedure:
To identify molecules that could block the binding of hVEGF₁₆₅ to the hVEGF-R2 (KDR/Flk-1) receptor, a competition ELISA was performed. […] Plates were then washed four times with wash buffer (TBS, 0.05% Tween-20) and blocked with Superblock blocking buffer (Thermo Scientific, cat#37535). […] The pre-incubated sample/hVEGF₁₆₅ complex was added to the coated plate at 50 μL in duplicate and incubated for 30 minutes at 25° C. with shaking. Following incubation, plates were washed four times with wash buffer. Streptavidin-polyHRP-40 (Fitzgerald cal#65r-s104phrp) was diluted in assay diluent (10% Superblock containing 0.05% surfactamps) and added to plates (50 μL) for 45 minutes at 25° C. with shaking. Plates were washed four times with wash buffer and developed with the addition of Enhanced K-blue TMB substrate (Neogen cat#308177). The reaction was stopped with 2N sulfuric acid (VWR, cat# BDH3500-1) and the absorbance was read at 450 nm-570 nm. A decrease in observed optical density indicates the test molecule is blocking the hVEGF₁₆₅ binding to the hVEGF-R2-Fc. Data was analyzed using Softmax Pro 4.8 software and IC₅₀ values calculated using a sigmoidal dose response (variable slope) fit in GraphPad Prism 5.
Background: In an ELISA, binding on a coated surface is turned into a signal by an enzyme label.

Experiment [6] concerns the target T5, Human VEGF-A 165. Put plainly: SPR (Biacore), antibody captured by anti-human Fc, hVEGF165 as analyte. The protocol:
as §1, with “For example, approximately 9000 RU of goat anti-human Fc specific polyclonal antibody (Thermo Fisher Scientific Inc., Rockford, Ill.) diluted in 10 mM sodium acetate (pH 4.5) is directly immobilized across a CM5 research grade biosensor chip using a standard amine coupling kit according to manufacturer's instructions and procedures at 25 μg/ml. Unreacted” for “Unreacted”, “calculated.” for “calculated. In this assay, on-rates as fast as 10⁶M⁻¹s⁻¹ and off-rates as slow as 10⁻⁶ s⁻¹ could be measured.”
A general note: In SPR one partner is held on a chip, and binding of the other changes the refractive index at the surface.

The target of experiment [7] is T6, recombinant human PDGF-BB (human, UniProt P01127 82-190, biotin-labelled in the binding and competition ELISAs (sites not given)).
T6 construct: Bought protein (CST cat#8912BF) in the ELISAs and cell assays; purified recombinant PDGF-BB in Biacore; also called huPDGF-BB; hPDGF-BB
Put plainly: Biacore SPR, antibody captured, PDGF-BB injected. The protocol:
as §1, with “For example, approximately 9000 RU of goat anti-human Fc specific polyclonal antibody (Thermo Fisher Scientific Inc., Rockford, Ill.) diluted in 10 mM sodium acetate (pH 4.5) is directly immobilized across a CM5 research grade biosensor chip using a standard amine coupling kit according to manufacturer's instructions and procedures at 25 μg/ml. Unreacted” for “Unreacted”, “calculated.” for “calculated. In this assay, on-rates as fast as 10⁶M⁻¹s⁻¹ and off-rates as slow as 10⁻⁶ s⁻¹ could be measured.”

The target in another experiment is T7, cyno PDGF-B (PR-1575400) (cynomolgus monkey, UniProt P01127 82-190 (human entry), limits assumed).
T7 construct: Recombinant; also called cynomolgus monkey PDGF-BB; cynoPDGF-BB
T7 chain: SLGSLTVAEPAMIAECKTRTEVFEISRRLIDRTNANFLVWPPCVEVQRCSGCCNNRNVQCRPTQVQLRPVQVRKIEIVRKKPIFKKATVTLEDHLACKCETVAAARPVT
Put plainly: SPR (Biacore), mAb captured by anti-human Fc, antigen injected. The procedure:
as §1

Experiment [8] addresses T8, mouse PDGF-B (PR-1577160) (mouse, UniProt P31240 82-190).
T8 construct: Recombinant; also called mouse PDGF-BB; mPDGF-BB
The description is as above. The protocol: as §1

Experiment [9] concerns the target T9, human PDGF-B (PR-1373790) (human, UniProt P01127 82-190).
T9 construct: Soluble recombinant PDGF-BB homodimer; also called human PDGF-BB; hPDGF-BB
The experiment is described as above. The protocol: as §1

Values joined by “and” are separate entries in the source; they are usually repeats but may differ in a detail not shown here. Equal values may be shown once. A value given as a limit tells only on which side of the number the result lay.

By Kd is commonly meant the constant that tells how readily two partners part at equilibrium. What is called koff is a measure of how fast the partners let go of each other. In general, kon refers to a measure of how fast the partners come together. What is called IC50 is the concentration needed to halve the response being measured. Higher therefore signals weaker potency in that assay.

T8 sequence (P31240 82-190 limits assumed): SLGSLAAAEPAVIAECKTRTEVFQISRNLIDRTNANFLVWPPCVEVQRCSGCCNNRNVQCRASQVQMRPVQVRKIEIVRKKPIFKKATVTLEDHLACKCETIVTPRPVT

B1: AB642 (9E10.1), PR-1594047 (antibody, V domains shown)
VH: EIQLVQSGSELKKPGASVKVSCKASGYTFTNYGMYWVKQAPGQGLEYMGWIDTETGRPTYADDFKGRFVFSLDTSVSTAYLQISSLKAEDTAVYFCARWSGDTTGIRGPWFAYWGQGTLVTVSS
VL: DIRMTQSPSSLSASVGDRVTIECLASEDIYSDLAWYQQKPGKSPKLLIYNANGLQNGVPSRFSGSGSGTDYSLTISSLQPEDVATYFCQQYNYFPGTFGQGTKLEIK
notes: Parental anti-VEGF mAb of PR-1610561; Humanized IgG; also called hBEW-9E10.1
In [1], B1 came in with a Kd of 1.8 pM, a koff of 2.8e-05 s⁻¹ and a kon of 1.6e+07 M⁻¹ s⁻¹. In [2], this molecule returned a Kd of 58 pM, a koff of 0.0001 s⁻¹ and an on-rate (kon) of 1.8e+06 M⁻¹ s⁻¹. In experiment [3], this molecule gave an equilibrium dissociation constant (Kd) of 21 pM, a koff of 6.8e-05 s⁻¹ and a kon of 3.2e+06 M⁻¹ s⁻¹.

B2: chBDB-4G8 (antibody, human IgG1, kappa, L234A L235A)
heavy: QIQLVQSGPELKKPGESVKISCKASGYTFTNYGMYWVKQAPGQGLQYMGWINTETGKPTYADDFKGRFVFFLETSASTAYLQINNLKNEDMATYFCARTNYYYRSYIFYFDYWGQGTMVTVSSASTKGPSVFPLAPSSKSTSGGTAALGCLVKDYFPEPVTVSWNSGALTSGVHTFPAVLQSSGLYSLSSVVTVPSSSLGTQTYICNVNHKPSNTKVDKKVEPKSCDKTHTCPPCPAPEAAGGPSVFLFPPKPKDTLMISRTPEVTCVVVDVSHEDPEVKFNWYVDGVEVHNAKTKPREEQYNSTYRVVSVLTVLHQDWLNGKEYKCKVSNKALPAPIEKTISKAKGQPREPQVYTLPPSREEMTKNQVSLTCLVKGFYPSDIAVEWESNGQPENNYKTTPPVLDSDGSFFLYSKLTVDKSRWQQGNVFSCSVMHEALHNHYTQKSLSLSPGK
light: DTVLTQSPALAVSPGERVSISCRASESVSTHMHWYQQKPGQQPKLLIYGASNLESGVPARFSGSGSGTDFTLTIDPVEADDTATYFCQQSWNDPFTFGAVTKLELKRTVAAPSVFIFPPSDEQLKSGTASVVCLLNNFYPREAKVQWKVDNALQSGNSQESVTEQDSKDSTYSLSSTLTLSKADYEKHKVYACEVTHQGLSSPVTKSFNRGEC
Consider B2, for which, in the experiment with human VEGF111, the “Phospho-Tyr1054/huVEGF-A111 Neuterlization” value was 0.575 nM. The “huVEGF-A165 Neutralization Potency in HMVEC-d cells” value (“huVEGF-A165 Neutralization Potency” for short) with Human VEGF-A 165 [4] was determined as 195 pM. Also, the half-maximal inhibitory concentration (IC50) in the experiment with Human VEGF-A 165 [5] came out at 157 pM. For the same molecule, in the experiment with Human VEGF-A 165 [6], the Kd was 1.9 pM and 3.8 pM; the kon is 1.7e+07 M⁻¹ s⁻¹ and 1.2e+07 M⁻¹ s⁻¹.

B3: BFU-11A8-D6-C3 (antibody, V domains shown)
VH: EVQLQQSGPELQRPGASVKLSCKASGYTFTESYIYWVKQRPEQSLELIGRIDPEDGSTDYVEKFKNKATLTADTSSNTAYMQLSSLTSEDTATYFCARFGARSYFYPMDAWGQGTSVTVSS
VL: DTVLTQSPTLAVSPGERVSIPCRASESVSTLMHWYQQKPGQQPRLLIYGASNLESGVPARFSGSGSGTDFTLTIDPVEADDTATYFCQQSWNDPWTFGGGTKLELK
B3: in experiment [7], the Kd was at most 0.047 pM, the koff was at most 1e-06 s⁻¹ and the kon stood at 2.1e+07 M⁻¹ s⁻¹.

B4: chBEW-6C2 (antibody, human IgG1, kappa, L234A L235A, V domains shown)
VH: EVQLVESGGGLVQPGSSLKLSCAASGFTFSYYGMHWIRQAPKKGLEWMALIYYDSSKMYYADSVKGRFTISRDNSKNTLYLEMNSLRSEDTAMYYCAAGGTAPVYWGQGVMVTVSS
VL: NIQLTQSPSLLSASVGDRVTLSCKGSQNIANYLAWYQQKLGEAPKLLIYNTDSLQTGIPSRFSGSGSGTDYTLTISSLQPEDVATYFCYQSNNGYTFGAGTKLELRR
Consider B4, for which the “Phospho-Tyr1054/huVEGF-A111 Neuterlization” value with human VEGF111 came to 0.435 nM. Besides, the “huVEGF-A165 Neutralization Potency” value with Human VEGF-A 165 [4] turned out to be 31 pM. The molecule also registered an IC50 with Human VEGF-A 165 [5] of 148 pM. Besides, in the experiment with Human VEGF-A 165 [6], the Kd was found to be 8.8 pM and the kon was 4.9e+06 M⁻¹ s⁻¹.

B5: CL-33675, PR-1593725 (antibody, V domains shown)
VH: EVTLRESGPALVKPTQTLTLTCTFSGFSLSTYGMGVGWIRQPPGKALEWLANIWWDDDKYYNPSLKNRLTISKDTSKNQVVLTMTNMDPVDTATYYCARIESSGPKYSFDYWGQGTMVTVSS
VL: EIVLTQSPGTLSLSPGERATLSCRASSGSIWYSFVSWYQQKPGQAPRLLIYADDQRASGIPDRFSGSGSGTDFTLTISRLEPEDFAVYYCQSYGINIDVVFGGGTKVEIK
notes: also called CL-33675-IgG
As for B5, the Kd is at most 1.3 pM with cyno PDGF-B (PR-1575400), at most 0.58 pM in experiment [8] and at most 0.58 pM in experiment [9]. The koff with cyno PDGF-B (PR-1575400) was determined as 1.3e-05 s⁻¹; in experiment [8], 5.8e-06 s⁻¹; in experiment [9] it was 5.8e-06 s⁻¹. In addition, the kon (with cyno PDGF-B (PR-1575400); in [8]; in [9]) was at least 1e+07 M⁻¹ s⁻¹ each time.

B6: chBEW-9A8 (antibody, human IgG1, kappa, L234A L235A, V domains shown)
VH: QIQLVQSGPELKKPGESVKISCKASGYTFTNYGMYWVKQAPGQGLQYMGWINTETGKPIYADDFKGRFVFFLETSASTAYLQINNLKNEDMATFFCARVDYDGSFWFAYWGQGTLVTVSS
VL: DTVLTQSPALAVSPGERVSISCRASESVSTVIHWYQQKPGQQPKLLIHGASNLESGVPARFSGSGSGTDFTLTIDPVEADDTATYFCQQHWNDPPTFGAGTKLEMKR
In the case of B6, in the experiment with human VEGF111, the “Phospho-Tyr1054/huVEGF-A111 Neuterlization” value turned out to be 0.26 nM. Moreover, the “huVEGF-A165 Neutralization Potency” value with Human VEGF-A 165 [4] was 26 pM. This molecule returned a concentration for half-maximal inhibition (IC50) with Human VEGF-A 165 [5] of 97 pM. Also, in the experiment with Human VEGF-A 165 [6], the Kd is at most 0.11 pM and the kon was 8.9e+06 M⁻¹ s⁻¹.
